Reference: patent publication US20230123178A1 (Hoffmann-La Roche, published 2023)

B1: PD1-0069 (antibody, V domains shown)
VH: QVQLQQSGPELVRPGVSVKISCKGSGYTFTDYAMHWVKQSHARTLEWIGVISTYSGDTNYNQKFKDKATMTVDKSSSTAYLELARMTSEDSAIYYCARLGITTGFAYWGQGTLVTVSA
VL: DIVLTQSPASLAVSLGQRATISCRASKGVSTSSYSFMHWYQQKPRQPPKLLIKYASYLESGVPARFSGSGSGTDFTLNIHPVEEEDAATYYCHHSREFPWTFGGGTKLEIK
B2: anti-PD1(0314) huIgG1 PGLALA (control M) (antibody, V domains shown)
VH: EVQLLESGGGLVQPGGSLRLSCAASGFSFSSYTMSWVRQAPGKGLEWVATISGGGRDIYYPDSVKGRFTISRDNSKNTLYLQMNSLRAEDTAVYYCVLLTGRVYFALDSWGQGTLVTVSS
VL: EIVLTQSPATLSLSPGERATLSCRASESVDTSDNSFIHWYQQKPGQSPRLLIYRSSTLESGIPARFSGSGSGTDFTLTISSLEPEDFAVYYCQQNYDVPWTFGQGTKVEIKR
notes: monospecific IgG1 of clone 0314; also called PD1 targeted human IgG control M
B3: PD1-0050 (antibody, V domains shown)
VH: DVQLQESGPGLVKPSQSLSLTCTVTGYSITSDYAWNWIRQFPGNKLEWMGYITYTGRTSYNPSLKSRISITRDTSKNQFFLQLNSVTTEDTATYYCAREMDYYGSTLDYWGQGTTLTVSS
VL: KIVLTQSPASLAVSLRQRATISCRASESVDRYGNSFIHWYQQKPGQPPKVLIYRASNLESGFPARFSGSGSRTDFTLTIDPVEADDAATYYCQQNNEDPYTFGSGTKLEIK
B4: PD1-0073 (antibody, V domains shown)
VH: EVKLVESGGGLVKPGGSLKLSCAASGFTFSNYGMSWIRQTPEKGLEWVATISGGGRDTYYPDSVKGRFTISRDNVKNNLYLQMSSLRSEDTAFYYCASYYYGIDYWGQGTSVTVSS
VL: DIVMTQPHKFMSTSVGDRVRITCKASQDVTTAVAWYQQKPGQSPKLLIYWASTRHTGVPDRFTGSGSGTEFTLTISSVQAEDLALYYCQQHYSIPWTFGGGTKLEIK
B5: PD1-0078 (antibody, V domains shown)
VH: QVQLQQPGAELVKPGASVKMSCKASGYTFTSTWMHWVKQRPGQGLEWIGAIDPSDSYTTYNQKFKGKATLTVDTSSTTAYMQLSSLTSEDSAVYYCTRSPFDYWGQGTTLTVSS
VL: DIVMTQSHKFMSTSVGDRVSITCKASQDVSTAVAWYQQKPGQSPKLLIYSASYRYTGVPDRFTGSGSGTDFTFAISSVQAEDLAVYYCQQHYSHPFTFGSGTKLEIK

Assays:
[1] = biological target: T1, full-length human PD1 on cells (human, UniProt Q15116 25-288); assay: cell-based or functional assay
[2] = biological target: T1, full-length human PD1 on cells; assay: flow cytometry, activated human PBMCs, CD19 cells
Protocol: (§1) Cells were further incubated for 2 days at 37° C. and 5% CO₂
(§2) For the binding assay 0.1×10⁶ fresh or activated PBMCs were added to each well of a round-bottom suspension cell 96-well plates (greiner bio-one, cellstar, Cat. No. 650185). Plates were centrifuged 5 minutes with 350×g and at 4° C. and supernatant were discarded. Afterwards cells were stained in 100 μL/well DPBS containing 1:5000 diluted fixable viability dye eF660 (eBioscience, Cat.-No. 65-0864-18) for 30 minutes at 4° C. in the dark. Cells were washed once with 200 μL ice cold cold DPBS buffer. Next, 50 μL/well of 4° C. cold FACS buffer (DPBS supplied with 2% FBS, 5 mM EDTA pH8 (Amresco, Cat. No. E177) and 7.5 mM Sodium azide (Sigma-Aldrich, Cat.-No. S2002)) containing titrated concentrations of construct 7.1, construct 7.3, construct 7.5 and construct 7.6 and as controls control B, control C, control D, control M and control F were added and cells were incubated for 60 minutes at 4° C., washed three times with 200 μL/well 4° C. FACS buffer. […] Data was analyzed using FlowJo V10 (FlowJo, LLC) and GraphPad Prism 6.04 (GraphPad Software, Inc)

[3] = biological target: T1, full-length human PD1 on cells; assay: flow cytometry, activated human PBMCs, γδ T cells
Protocol: as §1, §2

[4] = biological target: T2, human 4-1BB on cells (human, UniProt Q07011 24-255); assay: flow cytometry on HeLa-huCD137-NFkB-luc clone 26 cells; PE-conjugated anti-human IgG secondary; geo mean
T2 construct: whole, on cells; also called HeLa-hu4-1BB-NFkB-luc clone 26; HeLa-huCD137-NFkB-luc clone 26 cells
Protocol: Cells were washed once with 200 μL DPBS. Cells were resuspended in 100 μL/well of 4° C. cold DPBS buffer containing 1:5000 diluted Fixable Viability Dye eFluor 660 (eBioscience, Cat. No. 65-0864-18) and plates were incubated for 30 minutes at 4° C. Cells were washed once with 200 μL/well 4° C. cold DPBS buffer and resuspended in 50 μL/well of 4° C. cold FACS buffer (DPBS supplied with 2% FBS, 5 mM EDTA pH8 (Amresco, Cat. No. E177) and 7.5 mM Sodium azide (Sigma-Aldrich S2002)) containing PD1-targeted 4-1BB split trimeric ligand Fc fusion antigen binding molecules at a series of concentrations, followed by incubation for 1 hour at 4° C. After extensive washing, cells were further stained with 50 μL/well of 4° C. cold FACS buffer containing 5 μg/mL PE-conjugated AffiniPure anti-human IgG F(ab′)2-fragment-specific goat F(ab′)2 fragment (Jackson ImmunoResearch, Cat. No. 109 116 098) for 30 minutes at 4° C. Cells were washed twice with 200 μL/well 4° C. […] Data was analyzed using FlowJo V10 (FlowJo, LLC) and GraphPad Prism 6.04 (GraphPad Software, Inc).
(§3) Gates were set on living tumor cells and geo means of fluorescence intensity of PE-conjugated AffiniPure anti-human IgG IgG Fcγ-fragment-specific goat F(ab′)2 fragment were blotted against the titrated concentration of PD1-targeted 4-1BB split trimeric ligand Fc fusion antigen binding molecules or their controls.

[5] = biological target: T1, full-length human PD1 on cells; assay: flow cytometry on CHO-K1-huPD1 clone 5 cells
Description: For binding assays on PD1 and 4-1BB expressing tumor cells two genetically modified tumor cells were used. The generation of human expressing HeLa-hu4-1BB-NFκB-luc clone 26 cells will be described in Example 5.3.1. For human PD1 expressing tumor cell lines, CHO-k1 cells were transfected with human PD1 as following: parental adherent CHO-K1 cell line (ATCC CCL-61) was stably transfected with plasmid 15311_hPD1-fl_pUC_Neo coding for full-length human PD1 and selection with G418 (Neomycin resistance marker on plasmid).
0.1×10⁶ tumor cells resuspended in DPBS (Gibco by Life Technologies, Cat. No. 14190 326) were added to each well of a round-bottom suspension cell 96-well plates (greiner bio-one, cellstar, Cat. No. 650185). Cells were washed once with 200 μL DPBS. Cells were resuspended in 100 μL/well of 4° C. cold DPBS buffer containing 1:5000 diluted Fixable Viability Dye eFluor 660 (eBioscience, Cat. No. 65-0864-18) and plates were incubated for 30 minutes at 4° C. […] Data was analyzed using FlowJo V10 (FlowJo, LLC) and GraphPad Prism 6.04 (GraphPad Software, Inc).
as §3

[6] = biological target: T1, full-length human PD1 on cells; assay: flow cytometry, activated human PBMCs, CD4 T cells
Protocol: as §1, §2

[7] = biological target: T1, full-length human PD1 on cells; assay: flow cytometry, freshly isolated resting human PBMCs (table title), γδ T cells
Protocol: as §2

[8] = biological target: T1, full-length human PD1 on cells; assay: flow cytometry, activated human PBMCs, CD8 T cells
Protocol: as §1, §2

[9] = biological target: T1, full-length human PD1 on cells; assay: flow cytometry, freshly isolated resting human PBMCs (table title), CD4 T cells
Protocol: as §2

T1 sequence (Q15116 25-288 limits assumed): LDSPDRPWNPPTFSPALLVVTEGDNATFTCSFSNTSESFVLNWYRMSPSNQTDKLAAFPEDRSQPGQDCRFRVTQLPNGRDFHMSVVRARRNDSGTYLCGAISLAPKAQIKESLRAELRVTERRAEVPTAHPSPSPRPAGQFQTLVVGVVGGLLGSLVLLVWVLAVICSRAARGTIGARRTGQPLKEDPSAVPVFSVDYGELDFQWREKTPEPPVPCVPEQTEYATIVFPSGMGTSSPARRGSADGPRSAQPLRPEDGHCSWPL
T2 sequence (Q07011 24-255): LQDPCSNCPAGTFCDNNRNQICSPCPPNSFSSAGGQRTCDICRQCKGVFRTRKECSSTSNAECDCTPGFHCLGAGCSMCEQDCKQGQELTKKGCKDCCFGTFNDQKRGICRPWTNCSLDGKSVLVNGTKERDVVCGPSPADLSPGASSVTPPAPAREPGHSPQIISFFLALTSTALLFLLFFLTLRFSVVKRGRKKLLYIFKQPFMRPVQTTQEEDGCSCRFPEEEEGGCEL

Binder | Percentage of IFN gamma secretion in MLR against rec hu IL-2 (=100%), dilution 1:12 [1] | Percentage of IFN gamma secretion in MLR against rec hu IL-2 (=100%), dilution 1:120 [1] | Percentage of IFN gamma secretion in MLR against rec hu IL-2 (=100%), dilution 1:1200 [1] | EC50 [2] | EC50 [3] | binding result [4] | EC50 [5] | EC50 [6] | EC50 [7] | EC50 [8] | EC50 [9]
B1 | 76% | 71% | 55% | – | – | – | – | – | – | – | –
B2 | – | – | – | 330 pM | 710 pM | no binding (tested: ~300 nM) | 1590 pM | 330 pM | 30 pM | 300 pM | 30 pM
B3 | 136% | 96% | 33% | – | – | – | – | – | – | – | –
B4 | 103% | 63% | 38% | – | – | – | – | – | – | – | –
B5 | 99% | 72% | 21% | – | – | – | – | – | – | – | –
